Article PMC10839757

How the values were obtained:
Test in all cases: purified protein
[1] = substrate: NNC(=O)c1ccncc1; settings: pH 7.5
[2] = substrate: NC(=O)c1ccc[n+]([C@@H]2O[C@H](COP(=O)(O)OP(=O)(O)OC[C@H]3O[C@@H](n4cnc5c(N)ncnc54)[C@H](O)[C@@H]3O)[C@@H](O)[C@H]2O)c1; settings: pH 7.5
[3] = substrate: COc1cc(-c2ccc(N)c(OC)c2)ccc1N; settings: pH 5.5

B1: WT-KatG (Mt-KatG, Mycobacterium tuberculosis catalase-peroxidase) (Mycobacterium tuberculosis H37Rv) (protein)
chain: MPEQHPPITETTTGAASNGCPVVGHMKYPVEGGGNQDWWPNRLNLKVLHQNPAVADPMGAAFDYAAEVATIDVDALTRDIEEVMTTSQPWWPADYGHYGPLFIRMAWHAAGTYRIHDGRGGAGGGMQRFAPLNSWPDNASLDKARRLLWPVKKKYGKKLSWADLIVFAGNCALESMGFKTFGFGFGRVDQWEPDEVYWGKEATWLGDERYSGKRDLENPLAAVQMGLIYVNPEGPNGNPDPMAAAVDIRETFRRMAMNDVETAALIVGGHTFGKTHGAGPADLVGPEPEAAPLEQMGLGWKSSYGTGTGKDAITSGIEVVWTNTPTKWDNSFLEILYGYEWELTKSPAGAWQYTAKDGAGAGTIPDPFGGPGRSPTMLATDLSLRVDPIYERITRRWLEHPEELADEFAKAWYKLIHRDMGPVARYLGPLVPKQTLLWQDPVPAVSHDLVGEAEIASLKSQIRASGLTVSQLVSTAWAAASSFRGSDKRGGANGGRIRLQPQVGWEVNDPDGDLRKVIRTLEEIQESFNSAAPGNIKVSFADLVVLGGCAAIEKAAKAAGHNITVPFTPGRTDASQEQTDVESFAVLEPKADGFRNYLGKGNPLPAEYMLLDKANLLTLSAPEMTVLVGGLRVLGANYKRLPLGVFTEASESLTNDFFVNLLDMGITWEPSPADDGTYQGKDGSGKVKWTGSRVDLVFGSNSELRALVEVYGADDAQPKFVQDFVAAWDKVMNLDRFDVR
- Km [1]: 1900 ± 100 µM
- kcat/Km [1]: 50.6 M⁻¹ s⁻¹
- Km [2]: 210 ± 40 µM
- kcat/Km [2]: 443 M⁻¹ s⁻¹
- Km [3]: 2.1 ± 0.8 µM
- kcat/Km [3]: 3.1e+06 M⁻¹ s⁻¹
